Changes are numbered by the printed parent chain.
Target: Monomeric cynomolgus monkey Tau (cynomolgus monkey, UniProt P57786 2-459 (rhesus entry))
Experiment: SPR, hIgG captured, cynomolgus Tau monomer analyte, 1:1 model

Sequence of Monomeric cynomolgus monkey Tau (P57786 other isoform, or with tags, fused parts or gaps limits assumed, form in doubt): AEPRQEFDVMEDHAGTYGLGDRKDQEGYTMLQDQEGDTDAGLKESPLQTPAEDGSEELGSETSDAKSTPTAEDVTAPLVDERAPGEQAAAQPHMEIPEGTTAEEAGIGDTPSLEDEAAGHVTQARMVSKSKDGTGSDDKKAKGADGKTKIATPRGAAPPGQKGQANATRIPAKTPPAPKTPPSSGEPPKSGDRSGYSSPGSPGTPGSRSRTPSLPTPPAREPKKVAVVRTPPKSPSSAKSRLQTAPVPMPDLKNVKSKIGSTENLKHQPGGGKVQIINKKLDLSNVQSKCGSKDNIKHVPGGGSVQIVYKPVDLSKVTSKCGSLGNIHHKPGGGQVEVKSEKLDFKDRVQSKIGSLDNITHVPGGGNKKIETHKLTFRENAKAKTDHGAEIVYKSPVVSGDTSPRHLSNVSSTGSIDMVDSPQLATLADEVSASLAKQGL

B1: hu37D3.v28.A4 (antibody, V domains shown)
VH: EVQLVESGGGLVQPGGSLRLSCAASGLIFRSYGMSWVRQAPGKGLEWVATINSGGTYTYYPDSVKGRFTISRDNSKNTLYLQMNSLRAEDTAVYYCANSYSGAMDYWGQGTLVTVSS
VL: DDVLTQTPLSLPVTPGQPASISCRSSQSIVHSNGNTYLEWYLQKPGQSPQLLIYKVSNRFSGVPDRFSGSGSGTDFTLKISRVEAEDVGVYYCFQGSLVPWTFGQGTKVEIK
notes: also called hu37D3-H9.v28.A4
- Kd: 0.7 nM
- koff: 0.001 s⁻¹
- kon: 1.7e+06 M⁻¹ s⁻¹

B2: hu37D3-H9.v5 (antibody, V domains shown)
VH: B1 VH
VL: B1 VL with D1E, L38F
notes: Kappa2 framework
- Kd: 0.6 nM
- koff: 0.001 s⁻¹
- kon: 1.5e+06 M⁻¹ s⁻¹

B3: hu37D3-H9.v1 (antibody, V domains shown)
VH: B1 VH
VL: EDQLTQSPSSLSASVGDRVTITCRSSQSIVHSNGNTYFEWYQQKPGKSPKLLIYKVSNRFSGVPSRFSGSGSGTDFTLTISSLQPEDFATYYCFQGSLVPWTFGQGTKVEIK
notes: Kappa1 framework
- Kd: 0.8 nM
- kon: 2e+06 M⁻¹ s⁻¹
